Biological target: CXL10_HUMAN (human) (UniProt P02778)
Assay: cell-based or functional assay

Chain of CXL10_HUMAN (human) (P02778 22-98 limits assumed): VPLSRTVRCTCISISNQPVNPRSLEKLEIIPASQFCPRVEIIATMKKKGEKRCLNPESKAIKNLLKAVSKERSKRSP

EVA4_RHISA protein (from UniProt P0C8E9 24-127)
cell migration: 20 µM

— patent US20260234188A1, “CHEMOKINE-BINDING PEPTIDES” (Oxford University Innovation Limited, priority 2022, published 2026)
